Assay results from patent US20030143729A1, “DNA encoding taurine and GABA transporters and uses thereof” (Synaptic Pharmaceutical Corporation, priority 1992, published 2003).
Values joined by “and” are separate entries in the source; they are usually repeats but may differ in a detail not shown here. Equal values may be shown once.

Assays:
[1] = substrate: NCCS(=O)(=O)O; assay: cells, lysate or membranes; settings: other: various concentrations of [3H]taurine, 30 seconds, pH 7.4
Experimental: Transient transfections of COS cells with the plasmid pEVJB-rB16a were carried out using DEAE-dextran with DMSO according to the method of Lopata et al. (58) with minor modifications. COS cells were grown (37° C., 5%CO2) in high glucose Dulbecco's modified Eagle medium supplemented with 10% bovine calf serum, 100 U/ml penicillin G, and 100 μg/ml streptomycin sulfate. Cells were routinely used two days after transfection for transport studies.
Plates were incubated at 37° C. for 10 minutes unless indicated otherwise, then washed rapidly 3× with ice cold HBS. Cells were solubilized with 0.05% sodium deoxycholate/0.1N NaOH), an aliquot was neutralized with 1N HCl, and radioactivity was determined by scintillation counting. Protein was quantified in an aliquot of the solubilized cells using a BIO-RAD protein assay kit, according to the manufacturer's directions.

[2] = substrate: NCCCC(=O)O; assay: cells, lysate or membranes; settings: other: various concentrations of [3H]GABA, 30 seconds; pH 7.4; 37.0 °C

B1: taurine transporter (rB16a) (Rattus norvegicus) (protein)
chain: MATKEKLQCLKDFHKDILKPSPGKSPGTRPEDEADGKPPQREKWSSKIDFVLSVAGGFVGLGNVWRFPYLCYKNGGGAFLIPYFIFLFGSGLPVFFLEVIIGQYTSEGGITCWEKICPLFSGIGYASIVIVSLLNVYYIVILAWATYYLFQSFQKDLPWAHCNHSWNTPQCMEDTLRRNESHWVSLSAANFTSPVIEFWERNVLSLSSGIDHPGSLKWDLALCLLLVWLVCFFCIWKGVRSTGKVVYFTATFPFAMLLVLLVRGLTLPGAGEGIKFYLYPNISRLEDPQVWIDAGTQIFFSYAICLGAMTSLGSYNKYKYNSYRDCMLLGCLNSGTSFVSGFAIFSILGFMAQEQGVDIADVAESGPGLAFIAYPKAVTMMPLPTFWSILFFIMLLLLGLDSQFVEVEGQITSLVDLYPSFLRKGYRREIFIAIVCSISYLLGLTMVTEGGMYVFQLFDYYAASGVCLLWVAFFECFVIAWIYGGDNLYDGIEDMIGYRPGPWMKYSWAVITPALCVGCFIFSLVKYVPLTYNKVYRYPDWAIGLGWGLALSSMVCIPLVIVILLCRTEGPLRVRIKYLITPREPNRWAVEREGATPFHSRATLMNGALMKPSHVIVETMM
B1 gave a Km [1] of 43 ± 6 µM.

B2: GAT-2 (Rattus norvegicus) (protein)
chain: MDNRVSGTTSNGETKPVCPVMEKVEEDGTLEREQWTNKMEFVLSVAGEIIGLGNVWRFPYLCYKNGGGAFFIPYLIFLFTCGIPVFFLETALGQYTNQGGITAWRKICPIFEGIGYASQMIVSLLNVYYIVVLAWALFYLFSSFTTDLPWGSCSHEWNTENCVEFQKTNNSLNVTSENATSPVIEFWERRVLKISDGIQHLGSLRWELVLCLLLAWIICYFCIWKGVKSTGKVVYFTATFPYLMLVVLLIRGVTLPGAAQGIQFYLYPNITRLWDPQVWMDAGTQIFFSFAICLGCLTALGSYNKYHNNCYRDCVALCILNSSTSFVAGFAIFSILGFMSQEQGVPISEVAESGPGLAFIAYPRAVVMLPFSPLWACCFFFMVVLLGLDSQFVCVESLVTALVDMYPRVFRKKNRREILILIVSVVSFFIGLIMLTEGGMYVFQLFDYYAASGMCLLFVAIFESLCVAWVYGASRFYDNIEDMIGYKPWPLIKYCWLFFTPAVCLATFLFSLIKYTPLTYNKKYTYPWWGDALGWLLALSSMVCIPAWSIYKLRTLKGPLRERLRQLVCPAEDLPQKSQPELTSPATPMTSLLRLTELESNC
With B2 the Km [2] was 4 µM and 8 ± 3 µM.
